Values belong to the binder of their own block, whether it stands above or below them.
What was measured:
Assay in all cases: binding, other
SMC1B peptide on HLA [1] = target: T1, SMC1B peptide on HLA (human)
T1 peptide: NIQELIHGA

SLC45A2 peptide on HLA [2] = target: T2, SLC45A2 peptide on HLA (human)
T2 peptide: SLYSYFQKV

SLC30A8 peptide on HLA = target: T3, SLC30A8 peptide on HLA (human)
T3 peptide: ILAVDGVLSV

TRPM1 peptide on HLA = target: T4, TRPM1 peptide on HLA (human)
T4 peptide: RLGQGVPLV

SLC45A2 peptide on HLA [3] = target: T5, SLC45A2 peptide on HLA (human)
T5 peptide: RLLGTEFQV

SAGE1 peptide on HLA [4] = target: T6, SAGE1 peptide on HLA (human)
T6 peptide: VLIQQLEKA

SAGE1 peptide on HLA [5] = target: T7, SAGE1 peptide on HLA (human)
T7 peptide: TVLPGLTYL

SMC1B peptide on HLA [6] = target: T8, SMC1B peptide on HLA (human)
T8 peptide: KLQKEVVSI

binding result (SMC1B peptide on HLA [1]): recognises
B1: TCR of SEQ ID NOs 593 and 594 (TCR, V domains shown)
Valpha: KQEVTQIPAALSVPEGENLVLNCSFTDSAIYNLQWFRQDPGKGLTSLLLIQSSQREQTSGRLNASLDKSSGRSTLYIAASQPGDSATYLCAVRPWGYNQGGKLIFGQGTELSVKP
Vbeta: NAGVTQTPKFQVLKTGQSMTLQCAQDMNHNSMYWYRQDPGMGLRLIYYSASEGTTDKGEVPNGYNVSRSTTEDFPLRLLSAAPSQTSVYFCASSYWGDTEAFFGQGTRLTVV

binding result (SLC45A2 peptide on HLA [2]): recognises
B2: TCR of SEQ ID NOs 571 and 572 (TCR, V domains shown)
Valpha: KQEVTQIPAALSVPEGENLVLNCSFTDSAIYNLQWFRQDPGKGLTSLLLIQSSQREQTSGRLNASLDKSSGRSTLYIAASQPGDSATYLCAALSYNTDKLIFGTGTRLQVFP
Vbeta: NAGVTQTPKFQVLKTGQSMTLQCAQDMNHNSMYWYRQDPGMGLRLIYYSASEGTTDKGEVPNGYNVSRLNKREFSLRLESAAPSQTSVYFCASRYSPYTEAFFGQGTRLTVV

binding result (SLC30A8 peptide on HLA): recognises
B3: TCR of SEQ ID NOs 553 and 554 (TCR, V domains shown)
Valpha: QKEVEQNSEPLSVPEGAIASLNCTYSDRGSQSFFWYRQYSGKSPELIMSIYSNGDKEDGRFTAQLNKASQYVSLLIRDSQPSDSATYLCAVNSQGGKLMFGQGTELSVKP
Vbeta: NAGVTQTPKFRVLKTGQSMTLQCAQDMNHNYMYWYRQDPGMGLRLIHYSVGEGTTAKGEVPDGYNVSRLKKQNFLLGLESAAPSQTSVYFCASSYAPWPGPYEQYVGPGTRLTVT

binding result (SLC30A8 peptide on HLA): recognises
B4: TCR of SEQ ID NOs 551 and 552 (TCR, V domains shown)
Valpha: KQEVTQIPAALSVPEGENLVLNCSFTDSAIYNLQWFRQDPGKGLTSLLLIQSSQREQTSGRLNASLDKSSGRSTLYIAASQPGDSATYLCAVTGNQFYFGTGTSLTVIP
Vbeta: NAGVTQTPKFRVLKTGQSMTLQCAQDMNHEYMYWYRQDPGMGLRLIHYSVGAGITDQGEVPNGYNVSRSTTEDFPLRLLSAAPSQTSVYFCASSTYPVWGGEKMFFGSGTQLSVL

binding result (SLC45A2 peptide on HLA [2]): recognises
B5: TCR of SEQ ID NOs 573 and 574 (TCR, V domains shown)
Valpha: KQEVTQIPAALSVPEGENLVLNCSFTDSAIYNLQWFRQDPGKGLTSLLLIQSSQREQTSGRLNASLDKSSGRSTLYIAASQPGDSATYLCAVRGYSTLTFGKGTMLLVSP
Vbeta: NAGVTQTPKFQVLKTGQSMTLQCAQDMNHEYMSWYRQDPGMGLRLIHYSVGAGITDQGEVPNGYNVSRSTTEDFPLRLLSAAPSQTSVYFCASSRGQFTEAFFGQGTRLTVV

binding result (SLC45A2 peptide on HLA [2]): recognises
B6: TCR of SEQ ID NOs 569 and 570 (TCR, V domains shown)
Valpha: KQEVTQIPAALSVPEGENLVLNCSFTDSAIYNLQWFRQDPGKGLTSLLLIQSSQREQTSGRLNASLDKSSGRSTLYIAASQPGDSATYLCAVRDSWGKFQFGAGTQVVVTP
Vbeta: NAGVTQTPKFRVLKTGQSMTLLCAQDMNHEYMYWYRQDPGMGLRLIHYSVGEGTTAKGEVPDGYNVSRLKKQNFLLGLESAAPSQTSVYFCASSLGQGYGLAYDEQFFGPGTRLTVL

binding result (TRPM1 peptide on HLA): recognises
B7: TCR of SEQ ID NOs 601 and 602 (TCR, V domains shown)
Valpha: KQEVTQIPAALSVPEGENLVLNCSFTDSAIYNLQWFRQDPGKGLTSLLLIQSSQREQTSGRLNASLDKSSGRSTLYIAASQPGDSATYLCAVTDSWGKLQFGAGTQVVVTP
Vbeta: NAGVTQTPKFRVLKTGQSMTLLCAQDMNHEYMYWYRQDPGMGLRLIHYSVGEGTTAKGEVPDGYNVSRLKKQNFLLGLESAAPSQTSVYFCASSYADTYEQYFGPGTRLTVT

binding result (TRPM1 peptide on HLA): recognises
B8: TCR of SEQ ID NOs 599 and 600 (TCR, V domains shown)
Valpha: KQEVTQIPAALSVPEGENLVLNCSFTDSAIYNLQWFRQDPGKGLTSLLLIQSSQREQTSGRLNASLDKSSGRSTLYIAASQPGDSATYLCAVSGSWGKLQFGAGTQVVVTP
Vbeta: NAGVTQTPKFRVLKTGQSMTLLCAQDMNHEYMYWYRQDPGMGLRLIHYSVGEGTTAKGEVPDGYNVSRSTTEDFPLRLLSAAPSQTSVYFCASSLMDRPGEQFFGPGTRLTVL

binding result (SLC45A2 peptide on HLA [3]): recognises
B9: TCR of SEQ ID NOs 563 and 564 (TCR, V domains shown)
Valpha: KQEVTQIPAALSVPEGENLVLNCSFTDSAIYNLQWFRQDPGKGLTSLLLIQSSQREQTSGRLNASLDKSSGRSTLYIAASQPGDSATYLCAVRPTEYGNKLVFGAGTILRVKS
Vbeta: NAGVTQTPKFRVLKTGQSMTLLCAQDMNHEYMYWYRQDPGMGLRLIHYSVGEGTTAKGEVPDGYNVSRLKKQNFLLGLESAAPSQTSVYFCASSNEGGGYTFGSGTRLTVV

binding result (SMC1B peptide on HLA [1]): recognises
B10: TCR of SEQ ID NOs 595 and 596 (TCR, V domains shown)
Valpha: KQEVTQIPAALSVPEGENLVLNCSFTDSAIYNLQWFRQDPGKGLTSLLLIQSSQREQTSGRLNASLDKSSGRSTLYIAASQPGDSATYLCAVKEGTDSWGKFQFGAGTQVVVTP
Vbeta: NAGVTQTPKFRVLKTGQSMTLLCAQDMNHEYMYWYRQDPGMGLRLIHYSVGEGTTAKGEVPDGYNVSRLKKQNFLLGLESAAPSQTSVYFCASSYPSREAFFGQGTRLTVV

binding result (SAGE1 peptide on HLA [4]): recognises
B11: TCR of SEQ ID NOs 547 and 548 (TCR, V domains shown)
Valpha: KQEVTQIPAALSVPEGENLVLNCSFTDSAIYNLQWFRQDPGKGLTSLLLIQSSQREQTSGRLNASLDKSSGRSTLYIAASQPGDSATYLCAVRQGYSTLTFGKGTMLLVSP
Vbeta: NAGVTQTPKFQVLKTGQSMTLQCAQDMNHNSMYWYRQDPGMGLRLIYYSASEGTTDKGEVPNGYNVSRLNKREFSLRLESAAPSQTSVYFCASSYSYPLAVGELFFGEGSRLTVL

binding result (SLC30A8 peptide on HLA): recognises
B12: TCR of SEQ ID NOs 555 and 556 (TCR, V domains shown)
Valpha: KQEVTQIPAALSVPEGENLVLNCSFTDSAIYNLQWFRQDPGKGLTSLLLIQSSQREQTSGRLNASLDKSSGRSTLYIAASQPGDSATYLCAVQTGANNLFFGTGTRLTVIP
Vbeta: NAGVTQTPKFRILKIGQSMTLQCTQDMNHNYMYWYRQDPGMGLRLIHYSVGAGITDQGEVPNGYNVSRSTTEDFPLRLLSAAPSQTSVYFCASSTYPVWGGEKLFFGSGTQLSVL

binding result (SAGE1 peptide on HLA [5]): recognises
B13: TCR of SEQ ID NOs 543 and 544 (TCR, V domains shown)
Valpha: KQEVTQIPAALSVPEGENLVLNCSFTDSAIYNLQWFRQDPGKGLTSLLLIQSSQREQTSGRLNASLDKSSGRSTLYIAASQPGDSATYLCAVGDDYKLSFGAGTTVTVRA
Vbeta: NAGVTQTPKFQVLKTGQSMTLQCAQDMNHNSMYWYRQDPGMGLRLIYYSASEGTTDKGEVPNGYNVSRLNKREFSLRLESAAPSQTSVYFCASSEGWGGRTEAFFGQGTRLTVV

binding result (SAGE1 peptide on HLA [4]): recognises
B14: TCR of SEQ ID NOs 545 and 546 (TCR, V domains shown)
Valpha: KQEVTQIPAALSVPEGENLVLNCSFTDSAIYNLQWFRQDPGKGLTSLLLIQSSQREQTSGRLNASLDKSSGRSTLYIAASQPGDSATYLCAVRDDYKLSFGAGTTVTVRA
Vbeta: NAGVTQTPKFRVLKTGQSMTLLCAQDMNHEYMYWYRQDPGMGLRLIHYSVGEGTTAKGEVPDGYNVSRLKKQNFLLGLESAAPSQTSVYFCASSYGPGQIYGYTFGSGTRLTVV

binding result (SMC1B peptide on HLA [1]): recognises
B15: TCR of SEQ ID NOs 597 and 598 (TCR, V domains shown)
Valpha: KQEVTQIPAALSVPEGENLVLNCSFTDSAIYNLQWFRQDPGKGLTSLLLIQSSQREQTSGRLNASLDKSSGRSTLYIAASQPGDSATYLCAVWSWGKLQFGAGTQVVVTP
Vbeta: NAGVTQTPKFRVLKTGQSMTLLCAQDMNHEYMYWYRQDPGMGLRLIHYSVGEGTTAKGEVPDGYNVSRLKKQNFLLGLESAAPSQTSVYFCASSRGVPEVFFGQGTRLTVV

binding result (SAGE1 peptide on HLA [4]): recognises
B16: TCR of SEQ ID NOs 549 and 550 (TCR, V domains shown)
Valpha: KQEVTQIPAALSVPEGENLVLNCSFTDSAIYNLQWFRQDPGKGLTSLLLIQSSQREQTSGRLNASLDKSSGRSTLYIAASQPGDSATYLCAVSNDYKLSFGAGTTVTVRA
Vbeta: NAGVTQTPKFRVLKTGQSMTLLCAQDMNHEYMYWYRQDPGMGLRLIHYSVGEGTTAKGEVPDGYNVSRLKKQNFLLGLESAAPSQTSVYFCASSYSSRIYNEQFFGPGTRLTVL

binding result (SMC1B peptide on HLA [6]): recognises
B17: TCR of SEQ ID NOs 587 and 588 (TCR, V domains shown)
Valpha: KQEVTQIPAALSVPEGENLVLNCSFTDSAIYNLQWFRQDPGKGLTSLLLIQSSQREQTSGRLNASLDKSSGRSTLYIAASQPGDSATYLCAVSPRSNDYKLSFGAGTTVTVRA
Vbeta: NAGVTQTPKFRILKIGQSMTLQCAQDMNHNYMYWYRQDPGMGLKLIYYSVGAGITDKGEVPNGYNVSRSTTEDFPLRLELAAPSQTSVYFCASSTGSSYNSPLHFGNGTRLTVT

binding result (SLC45A2 peptide on HLA [3]): recognises
B18: TCR of SEQ ID NOs 567 and 568 (TCR, V domains shown)
Valpha: KQEVTQIPAALSVPEGENLVLNCSFTDSAIYNLQWFRQDPGKGLTSLLLIQSSQREQTSGRLNASLDKSSGRSTLYIAASQPGDSATYLCAVSGGGADGLTFGKGTHLIIQP
Vbeta: NAGVTQTPKFRILKIGQSMTLQCTQDMNHNYMYWYRQDPGMGLKLIYYSVGAGITDQGEVPNGYNVSRLNKREFSLRLESAAPSQTSVYFCASSEEGWSNSPLHFGNGTRLTVT

binding result (SMC1B peptide on HLA [6]): recognises
B19: TCR of SEQ ID NOs 589 and 590 (TCR, V domains shown)
Valpha: QKEVEQNSGPLSVPEGAIASLNCTYSDRGSQSFFWYRQYSGKSPELIMSIYSNGDKEDGRFTAQLNKASQYVSLLIRDSQPSDSATYLCAVGGRDDKIIFGKGTRLHILP
Vbeta: NAGVTQTPKFQVLKTGQSMTLQCAQDMNHNSMYWYRQDPGMGLRLIYYSASEGTTDKGEVPNGYNVSRSTTEDFPLRLLSAAPSQTSVYFCASSYTDGVNSPLHFGNGTRLTVT

binding result (SLC45A2 peptide on HLA [3]): recognises
B20: TCR of SEQ ID NOs 565 and 566 (TCR, V domains shown)
Valpha: KQEVTQIPAALSVPEGENLVLNCSFTDSAIYNLQWFRQDPGKGLTSLLLIQSSQREQTSGRLNASLDKSSGRSTLYIAASQPGDSATYLCAVDKAAGNKLTFGGGTRVLVKP
Vbeta: NAGVTQTPKFQVLKTGQSMTLQCAQDMNHNYMYWYRQDPGMGLRLIHYSVGAGITDQGEVPNGYNVSRSTTEDFPLRLLSAAPSQTSVYFCASKNWGTEAFFGQGTRLTVV

binding result (SMC1B peptide on HLA [6]): recognises
B21: TCR of SEQ ID NOs 591 and 592 (TCR, V domains shown)
Valpha: KQEVTQIPAALSVPEGENLVLNCSFTDSAIYNLQWFRQDPGKGLTSLLLIQSSQREQTSGRLNASLDKSSGRSTLYIAASQPGDSATYLCAVDQDSGYALNFGKGTSLLVTP
Vbeta: DTGVSQNPRHKITKRGQNVTFRCDPISEHNRLYWYRQTLGQGPEFLTYFQNEAQLEKSRLLSDRFSAERPKGSFSTLEIQRTEQGDSAMYLCASSLYRSYEQYFGPGTRLTVT

Source: patent US20230346885A1 (published 2023)
